From patent US20150216990A1 (TUFTS MEDICAL CENTER, published 2015)
The star is where a group is joined. Palmitoyl = CCCCCCCCCCCCCCCC(=O)*

Biological target: T1, human PAR1 (thrombin receptor) on human platelets (human, UniProt P25116 42-425)
T1 sequence (looked up): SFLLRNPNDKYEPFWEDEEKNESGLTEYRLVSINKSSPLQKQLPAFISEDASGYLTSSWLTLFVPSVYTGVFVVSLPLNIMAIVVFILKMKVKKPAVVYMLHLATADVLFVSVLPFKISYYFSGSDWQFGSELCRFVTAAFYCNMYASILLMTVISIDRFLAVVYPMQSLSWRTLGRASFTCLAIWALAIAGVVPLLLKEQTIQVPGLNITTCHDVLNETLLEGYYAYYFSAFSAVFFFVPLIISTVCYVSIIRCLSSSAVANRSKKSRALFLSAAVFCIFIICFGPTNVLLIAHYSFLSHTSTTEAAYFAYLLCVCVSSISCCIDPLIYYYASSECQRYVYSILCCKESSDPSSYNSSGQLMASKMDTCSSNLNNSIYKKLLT
Assay: cell-based or functional assay

- right shift of thrombin-induced aggregation of human platelets: 5 fold
B1: PZ-128 (palmitate-KKSRALF-NH2) (peptide)
peptide: Palmitoyl-KKSRALF-NH2
modifications: also: acetate salt
